These are literature values, as cited in paper PMC8002558.

Broadly, the Kd is the constant that tells how readily two partners part at equilibrium.

This data set concerns the target Fibrinogen (Homo sapiens) (UniProt P02671).
Sequence of UniProt P02671 (P02671 36-866, chain 1 of 3): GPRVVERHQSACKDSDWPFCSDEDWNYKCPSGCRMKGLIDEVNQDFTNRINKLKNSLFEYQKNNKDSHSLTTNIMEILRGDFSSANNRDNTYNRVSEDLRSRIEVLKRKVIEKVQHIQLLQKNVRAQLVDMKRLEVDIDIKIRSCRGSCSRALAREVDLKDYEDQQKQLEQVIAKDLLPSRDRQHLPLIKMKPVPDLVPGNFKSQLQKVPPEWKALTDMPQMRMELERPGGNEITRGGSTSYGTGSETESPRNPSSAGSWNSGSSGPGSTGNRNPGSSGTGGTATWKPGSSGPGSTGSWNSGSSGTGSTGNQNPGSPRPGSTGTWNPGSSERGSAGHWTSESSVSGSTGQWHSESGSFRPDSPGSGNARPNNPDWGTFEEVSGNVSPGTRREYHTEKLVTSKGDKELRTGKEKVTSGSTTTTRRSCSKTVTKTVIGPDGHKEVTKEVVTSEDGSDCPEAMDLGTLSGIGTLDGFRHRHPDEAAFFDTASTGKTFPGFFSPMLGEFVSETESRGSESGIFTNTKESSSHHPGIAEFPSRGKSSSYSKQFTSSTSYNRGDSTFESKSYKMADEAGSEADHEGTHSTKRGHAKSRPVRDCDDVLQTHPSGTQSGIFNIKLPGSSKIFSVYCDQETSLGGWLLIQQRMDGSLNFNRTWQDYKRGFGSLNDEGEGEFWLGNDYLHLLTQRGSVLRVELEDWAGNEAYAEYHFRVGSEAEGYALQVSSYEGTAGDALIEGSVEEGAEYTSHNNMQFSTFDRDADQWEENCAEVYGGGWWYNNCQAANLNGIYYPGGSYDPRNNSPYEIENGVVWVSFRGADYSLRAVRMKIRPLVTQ
Sequence of UniProt P02671 (P02675 45-491, chain 2 of 3, further chain): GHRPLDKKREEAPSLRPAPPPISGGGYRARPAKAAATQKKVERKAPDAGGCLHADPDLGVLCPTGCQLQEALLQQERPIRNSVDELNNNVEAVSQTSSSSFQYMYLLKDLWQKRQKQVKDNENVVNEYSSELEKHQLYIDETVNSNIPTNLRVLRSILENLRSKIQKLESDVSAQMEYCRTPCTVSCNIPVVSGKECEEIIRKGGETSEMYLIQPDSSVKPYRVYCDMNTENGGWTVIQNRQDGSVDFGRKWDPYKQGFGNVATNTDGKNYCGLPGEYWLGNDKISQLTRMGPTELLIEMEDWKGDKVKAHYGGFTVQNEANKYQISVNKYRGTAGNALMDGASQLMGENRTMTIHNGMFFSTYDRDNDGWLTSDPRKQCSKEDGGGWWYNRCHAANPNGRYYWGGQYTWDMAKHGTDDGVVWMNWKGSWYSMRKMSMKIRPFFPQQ
Sequence of UniProt P02671 (P02679 27-453, chain 3 of 3, further chain): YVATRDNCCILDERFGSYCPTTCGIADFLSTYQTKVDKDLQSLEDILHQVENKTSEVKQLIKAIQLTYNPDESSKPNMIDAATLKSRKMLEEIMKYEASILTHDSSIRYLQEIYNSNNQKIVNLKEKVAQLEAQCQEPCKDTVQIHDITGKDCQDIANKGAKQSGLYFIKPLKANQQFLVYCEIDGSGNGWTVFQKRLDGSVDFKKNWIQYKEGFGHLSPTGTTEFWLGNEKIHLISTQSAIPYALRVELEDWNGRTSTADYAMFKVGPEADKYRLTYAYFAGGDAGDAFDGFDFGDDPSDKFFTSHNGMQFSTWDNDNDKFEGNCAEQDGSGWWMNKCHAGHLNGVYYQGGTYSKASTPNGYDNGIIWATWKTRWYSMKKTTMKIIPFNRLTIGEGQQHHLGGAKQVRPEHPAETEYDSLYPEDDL

With “Factor XIII (plasma) (from UniProt P00488)”, the Kd was 10 nM.
